Results: patent US20140329742A1 (GlaxoSmithKline, published 2014)
Where no end group is shown, it is not given here.

T1: human Neuropeptide Y receptor type 2 (human, UniProt P49146 1-381)
T1 sequence (looked up): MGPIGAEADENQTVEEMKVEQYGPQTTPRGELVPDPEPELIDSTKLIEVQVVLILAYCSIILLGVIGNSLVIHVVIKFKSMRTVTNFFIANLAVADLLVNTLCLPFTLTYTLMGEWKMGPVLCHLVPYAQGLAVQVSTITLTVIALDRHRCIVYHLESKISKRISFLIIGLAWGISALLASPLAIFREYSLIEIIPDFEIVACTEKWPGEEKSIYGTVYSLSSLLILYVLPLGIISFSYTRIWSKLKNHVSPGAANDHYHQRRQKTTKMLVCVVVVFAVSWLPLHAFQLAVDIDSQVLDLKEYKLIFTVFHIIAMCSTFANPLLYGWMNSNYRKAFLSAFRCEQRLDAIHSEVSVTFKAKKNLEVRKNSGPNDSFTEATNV


Biological target: T1, human Neuropeptide Y receptor type 2
Test: cell-based or functional assay

With IKPPYPGCDASPEEQNKYYASLRAYWNLVTRQRY-NH2 [Peptide 8] as the binder, how does the “hNPY Y2 pEC50 (melanophore assay)” value read?
The value was 9.3.

With PKPEAPGCDASPEEWNRYYASLRKYLNWVTRQNY-NH2 [Peptide 1] as the binder, how does the “hNPY Y2 pEC50 (melanophore assay)” value read?
Its value is 7.9.

For PKPEAPGEDASPKEWNRYYASLRKYLNWVTRQRY-NH2 [Peptide 3], which “hNPY Y2 pEC50 (melanophore assay)” value is on record?
Its value is 9.2.

Which “hNPY Y2 pEC50 (melanophore assay)” value does the source give for IKPEAPLSKQLEEEAVRYYASLRHYLNLVTRQRY-NH2 [Peptide 2] here?
Its value is 8.6.

For PKPVAPGCDASPAELNRQYSDLRNYWNLVTRQRY-NH2 [Peptide 15], which “hNPY Y2 pEC50 (melanophore assay)” value is on record?
The value was 8.9.

How did the “hNPY Y2 pEC50 (melanophore assay)” value turn out when PKPEAPLSKQLEEEAVRYYASLRHYLNLVTRQRY-NH2 [Peptide 21] was run?
Its value is 8.7.

How did the “hNPY Y2 pEC50 (melanophore assay)” value turn out when PKPEAPGCDASPEEWNRYYASLRKYLNWVTRQHY-NH2 [Peptide 14] was run?
Its value is 8.2.

Biological target: T1, human Neuropeptide Y receptor type 2
Test: cell-based or functional assay
Remark: another data set of the same source

How did the “hNPY Y2 pEC50 (melanophore assay)” value turn out when PKPEHPGKDASPEEWNRYYASLRKYLNWVTRQRY-NH2 [Example 25] was run?
Its value is 9.6.

For PKPEAPGKDASPEELNRYYASLRKYLNWVTRQRY-NH2 [Example 31], which “hNPY Y2 pEC50 (melanophore assay)” value is on record?
Its value is 9.8.

PKPEAPGKDASPEELNRYYASLRKYLNWLTRQRY-NH2 [Example 2] was tested. Which “hNPY Y2 pEC50 (melanophore assay)” value did it give?
Its value is 9.8.
